# Assay: soluble on expression in E. coli; label from the status in PepcDB or PDB records
row,Sequence,soluble on expression in E. coli
1,MSLNTIDNKEHIIHYEHILKSTHTVNEVNTVSEVDAMKYSLIKLSAMNSYSDCQQAIEDIEADPENYTTETRAAARIGGHCELLKGAKEKIKALEKKADSFIPSDDSEEVNTVSETSQRTYGYGRVSTDEQTTSQQLTAIREAGHKVSDNRFIVDEGVSGGVCAMERPAFRNLVENKLEKGDTLVIAKLDRLGRDNIDVQQVVQMLTDKGIKLFILDLPVADLSSPEGKLMLQMFATFAEFEKNRISERIRDKLKQLKQEGKALGRPTKNVYDDVQELKAQGISQRTIADKLNVSLSTVRRNWVDTKRSLEVVTESGEGHHHHHH,not soluble
2,MSLNVFDKSGQSSGYKLSSTIGKNNTDVNKNDNNSAIYSESAVIVFGYPEYLSNQVITHFSHFGNILEDFEILRSSTGINNNTFRLHANLNALQEGSMSTKLPIFTGEGWVKITYDSPTSALRALKENGTVFTGHLIGCIPYSKSAVEQLALISVDKSDDIGSIDLGQINKSVNEDSRNKGSNGKVYPSLGSVDHIEPINGRQKEANMKSFGTPIINNNQQYLDHSIMAHPRHKLDIQDGKSLFVHNSSHHKTQFLDNIEKKIKEKEANKNESGSWSGRLTNWVFGWDNEGHHHHHH,soluble
3,MSLNVQGNLFRPLTLPNGLSLENRFVLSPMVTNSSTSEGFVTDDDIAYAVRRAKSAPLQITGAAYITEYGQLFEYGFSVSKDEDIPGLTKLAKAMKSKGAKAVLQLTHAGRFSSHTLARHGYVYGPSPMQLQSPYPHQVKELTHKDILRIIDEYVQATRRAIQAGFDGVEISSAQRLLIQTFFSTFSNQRKDEYGPQTLTNRCRLGLEVFKAVQKVIREEAESDFILGFRATPEETRGSQIGYSIEEFMEFLEKILAIAQVDYLAIASWGHDVFRNTIRSEGVYKGQLVNQVIFEHFGDRVPIMATGGINSASKVFEALQHAHMIGASTPLVVDPEFLQKIKAKCSDQINLRIKVSDLEGLAIPKASFKDIVPLMDYGESEGHHHHHH,soluble
4,MSLNYEMFAKLYDRLMADAPYDRWAKLVEEEIRKAIFSDVNLLDIGCGTGRLLKILSERGYACTGVDQSANMLVIAREALAQKGVQVPLFQQDMTEFYTGETYQVITIFCDSLNYVITEEGVVQTFQRVFDHLDQQGVFMFDVHSPTKLRNHFIGKTFADADEEISYIWQSFAGEAEQSVEHELTFFVRNETGSYDRYEELHIQRGYPIERYVDWLKEAGFSRIDITADFTNEAPTENSERIFFKAYKKEGHHHHHH,soluble
5,MSLPAGPSMACQKGTSTWAKAERPRSAKGRSFRMARILLPFSATMGGSRLQWEGMAASHALKPILELLPEELPGEGYRRAQIAHWLYAKGARDFSEMTDLPKALREALAREWRLSEFSLVQAFPSQDGSVKYLFTLLDGKKTEAVYMPYENRKTVCLSTMVGCPAGCTFCATGALGFGRNLTAAEILDQLLTIAYHQGLSPREIRNVVLMGMGEPLLNLRNVLKAVRIMLHKKALALSPRRVTLSTVGIPKGIYRLAEEDLGVRLALSLHAPDDETRRKIIPTAHRYPIAEIMEAVRHYHAKTKRRVTFEYTLLKGVNDHLWQARLLAKLLKGLSAHVNLIPFNPWEGAPVVGTPRAGVLAFAEELKRLGVPTSIRWSRGQDVGAACGQLALKVPRPLTLTPLPGGAGR,soluble
6,MSLPANKLVFVGGMGAGKTTAVRAISDVEPVSTEMPLSQDAYGDKTYTTVALDYSSIELEDGELLHVYGVPGQKYLDFMWPLVCDGALGVIVLTSARDTQMRDTTLELLREFSRITPEASLAVGVTMTDEVQEFLLPPFREALVAEGFRIPVMRVDARSATQITFLVKTLLSYRYTSAPVLEHHHHHH,soluble
7,MSLPINDQRFNGEDWINNPFFNLLSQHYLLANEHMNSLLENMEYGDENLAKRVRFFTRQYLDALSPANFIHTNPQLMAETLQSHGKNLLRGLHNLLSDVEAGSSRLIIKMTDTEAFKIGENLATTPGKVIFRNSMMELIQYCPRTTKAKSIPLLIVPPWINKYYILDLSPHNSLIRWLVEQGITVFIISWVNPDEEGHHHHHH,not soluble
8,MSLPTTSSPLTNDQEFAKPVRNGKIFENPKSFTNWGGRPGLTNIFKLVLRETSHENLPSDKKVLDSTLPVHNITADDFHSESGLFATWLGHATVLVDLEGVKFVTDPVWADRASFTSFAGPKRYRPPPMKLEDLPDLDFAVVSHDHYDHLDADAVKRITNLNPQIKWFVPLGLKKWMKNQGIGADGSNTVTELNWGESSEFVKNGKTITIWCLPAQHSGQRGLSDHNHRLWSGWAVIGENRRFYFPGDTGFCDVEFKKIGEKLGPFDLAAIPIGAYEPRWFMKSHHINPDEAVEVHKLVRARNSIGIHWGTYPMGTTEYYLEPRDKLKELMDAREDLKDTSFVTVDMGEIWEASDR,not soluble
9,MSLQCDDCKTKLMPLVAHEVDHIDNRRDVAGDLDDSPDNLRAVNRDCHRRITMRQIAEAGAVGTMAPVWMPITQKPLTVVVGPPSAGKSTWVKAAAKASDLVIDLDILAPTVIGKPMWIADSRERSLVIRERNSLVAEYMRGKTAHPHCFLIDTAGSFKRRKFWLDRGADVVLLDTDKDICRARIRQCSARPESTRAGRLAAVDRWEEGHHHHHH,not soluble
10,MSLQDIYGTLANLNTKLKQKLSHPYLAKHISAPKIDEDKLLLFHALFEEADIKNNDRENYIVTAMLVQSALDTHDEVTTARVIKRDENKNRQLTVLAGDYFSGLYYSLLSEMKDIYMIRTLATAIKEINEHKIRLYDRSFKDENDFFESVGIVESALFHRVAEHFNLPRWKKLSSDFFVFKRLMNGNDAFLDVIGSFIQLGKTKEEILEDCFKKAKNSIESLLPLNSPIQNILINRLKTISQDQTYHQKVEEGEGHHHHHH,soluble
11,MSLQEVITLKVIGPWSGAELDAFMEVLKAFEKQHPNIKIEYKTYRAEDLSTILPLQFESHDTPADVIFMWGWFIAEMGKKGHLMELNNIINPEEYVPGILDSVTVDGKIYGAPFTAAAKPGFWYRKSFFEKHNLKPPKTWDDFVALLEEIKKIPGIKAPIVSGDSVGWPLSDVTEHFILTFGGKDLQLKLIKGEVKWEDPQVRKIFEEKLVPLLKAGYFSDPIEWTSAVDLWWKGEYALYFMGTWITGMVDDPNDLGLIPLPGVKAMVIAPDYLMVPKYTSHPKEALELAKFLATEGQRIHVGTKSGKLATWKKVSIDDYWAPMRDVAKIVANVESAPDLDDSVGGEWQKVFWDQLKLLWVQPDRLDEVLKTLDEKFPKEGHHHHHH,soluble
12,MSLQEVKKTYFVSKPGTLISMMTEEEANQVTHLTLTGKINAVDFRHLRDEFKNLQVLDIANASISMYSGKEGTYPDKFYIYMPNFVPAYAFCKMENGTAKGKSTLKKIILSEKIKNIEDAAFMGCENLNICQIKKKTPPNLLPEALADSITAIFVPLGASDEYRLKNRWDNFAFIEGEPLEAKIEVGALSTLENEIQKAGLQPKEINFLTIEGKLDAADFKLIRDYMPNLVAVDIEKTNATAIPDFTFSQKKYLLRIRLPHGLKSIGQRAFSNCGRLCGTVELPESITAIEYGAFMGCDRLRYVVAHGDKITTIGDNLFGEGKNKLIYKREGHHHHHH,soluble
13,MSLQFEGDTITYVGTGRPASDEIIDATGKVVMPGFINTHAHVGMSASKGLFDDVDLERFLDMTFKYDSQRTEEGIFNSARLGMYEMINSGITSFVDLYYSENVIARAAEQVGIRAFLSWVTLDREFTTQKGDPLDNAENFIRSHQNMRFVKPSVGVQGIYVASDETYQRAKEIAERYDTIMHMHLSETRKEVYDSVKKIGERPIEHLDKIGVLSSRVIAAHCVWATYHEAKLLGKNGVNVSWNAVSNFKLATGGVPPVPEMLDAGVNITIGTDSNGSNNSLNFFEAMKFSALTVKNARWDASIIKSQQILDFATIDAAKALRLNAGSIEVGKKADIVILDARRPELIPTDKNNVVNNIVYSTNPASVDSVIIDGVFRKKGGRLIGFDEGGVASANVFVEGHHHHHH,not soluble
14,MSLQIKFIDLFSGMSGIRKGFEQACRKQSVACECVFTSEIKPAALEVLKQNYPDEVPYGDITKIETGDIPDFDILLAGFPCQAFSFAGKRLGFEDTRGTLFFDVARILKAKKPKGFILENVEGLVTHDRKDPTQKIGRTLTVILETLETLGYYVSWKVLNAKDFGIPQNRKRIYLTGSLKSKPDLSFETTLSPKLKNILESGLPTESSPFIKKLLKKFPPSELYGKSVKDKRGGKNNIHSWDIELKGTVTEEEKQLLNMLLKERRKKKWASEIGIDWMDGMPLTKAQISTFYKHPNLQNILDSLTDKGYLVLEHPKQKIGGRRIKDESLPKGYNIVSGKKSFEINKILDPNDVAPTLVAMDMEHLFVVDNGGLRTLTGKEGLRLFGYPDDYSFDIPKKDKYDLLGNTVAVPVIKAVSERLLHTLEGHHHHHH,soluble
15,MSLQLSNFLELERADTFENVERVQNAVATEQSYLDYIVQDWACWDDTYQFIEDKNPEYIRVDLQNQTLSGINVNVMIFVNNSGKVVYVKSVNTSTAEEAPVPRKLLAMIEDGGLLTEGENDSISGFVLLDEDPMFIACHPILTTKYEGPSRGTLIFGRYFDDALLESFKKVTRSSLLMYRADEEMPQDFQNKIKNFSQNSDNIVVDPLNKNQIAGYFGLKDIKGDIALILRADFPREGHHHHHH,soluble
16,MSLQMKPEDILENIFYFRVCSYTEQIALVNHLEKFISENKDVKVVIVDSITFHFRQDYDDLAQRTRVLSEMALKFMKLAKKFSLAVVLLNQVTTKFSEGSFQLALALGDSWSHSCTNRVILYWNGDERYAYIDKSPSLPSASASYTVTSRGLRNSSEGHHHHHH,not soluble
17,MSLQNPFVPQLVYIEPRALEYPLGQELQDKFENMGIEIRETTSHNQVRNIPGKNHLQQYRNAKSTLVIGVRKTLKFDSSKPSAEYAIPFATGCMGHCHYCYLQTTMGSKPYIRTYVNVEEILDQADKYMKERAPEFTRFEASCTSDIVGIDHLTHTLKRAIEHFGQSDLGKLRFVTKFHHVDHLLDAKHNGKTRFRFSINADYVIKNFEPGTSPLDKRIEAAVKVAKAGYPLGFIVAPIYIHEGWEEGYRHLFEKLDAALPQDVRHDITFELIQHRFTKPAKRVIEKNYPKTKLELDEEKRRYKWGRYGIGKYIYQKDEEHALREALESYIDTFFPNAKIEYFTEGHHHHHH,soluble
18,MSLQQAVGMYVEAPTPDEAARLINSGRKLGIVIAVGVCEVFYTGRAAASLGPTRRLVILKRDGTLLVHEAEKAQPKIWNPPGSSTAAYVEGGKLVVKSIRSRPFETVRVIFDKVDFIAAFDVGATELTLVGSERDVVGALVKNPSIIEEGLEVVGVEVPTDVGHLDILARDKNGRYVIIEVKRDLATHEAVFQLARYVELYRRKGYDVRGILVAGDITASAYDYLKRYGLNFVKINPRELMVLTNKNPLNAKEGHHHHHH,soluble
19,MSLQTIEEMDAYPAVDDSGDHLLDPNMIPTAATEVVMSGDGIERQFGDEEDTYQYEYTYEDDPQLEIGEEEVVVTDEAEYQEHWKDEEK,not soluble
20,MSLQVKHLLLIAILALTAACSSNKETVDENLSESQLYQQAQDDLNNKSYNSAVTKLKALESRYPFGRYAEQAQLELIYANYKNMEPEAARAAAERFIRLHPQHPNVDYAYYLKGLSSFDQDRGLLARFLPLDMTKRDPGAARDSFNEFAQLTSRFPNSRYAPDAKARMVYLRNLLAAYEVHVGHYYLKRQAYVAAANRGRYVVENFQETPAVGDGLAIMVEAYRRLGLDDLASTSLETLKLNYPDNASLKDGEFVARESEADTRSWLAKATLGLIEGGEPPPHMETQAAKDVIKQYEDAEREIPAELKPENQDHSADDEKPESDDDEDSGRSWWSYMTFGLFDEGGSHHHHHH,soluble
